{
  "source": "paper PMC9880813",
  "about": "(Genomics, Proteomics & Bioinformatics, 2021)",
  "key": {"YC157-ΔbFos": {"biological_target": "YC157-ΔbFos", "experiment": "split reporter (BiFC, NanoBiT)"}, "YC157-bFos": {"biological_target": "YC157-bFos (UniProt P01100 118-210)", "sequence (P01100 118-210)": "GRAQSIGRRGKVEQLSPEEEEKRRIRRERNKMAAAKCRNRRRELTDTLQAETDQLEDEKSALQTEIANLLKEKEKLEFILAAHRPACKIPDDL", "experiment": "split reporter (BiFC, NanoBiT)", "conditions": "partners not purified"}},
  "data": [
    {"binder": "YN157-bJun (domain or fragment, UniProt P05412 257-318, looked up) RKRMRNRIAASKCRKRKLERIARLEEKVKTLKAQNSELASTANMLREQVAQLKQKVMNHVNS", "values": [
      {"measurement": "fluorescence-positive cell ratio", "setting": "YC157-ΔbFos", "result": 0.5, "unit": "%"},
      {"measurement": "percentage of fluorescent cells, fold over the negative group (YN157-bJun + YC157-ΔbFos)", "setting": "YC157-bFos", "result": 7, "unit": "fold"},
      {"measurement": "signal-to-noise ratio of all cells (against YN157-bJun + YC157-ΔbFos)", "setting": "YC157-bFos", "result": 33, "unit": "ratio"},
      {"measurement": "signal-to-noise ratio of fluorescent cells (against YN157-bJun + YC157-ΔbFos)", "setting": "YC157-bFos", "result": 4, "unit": "ratio"}
    ]}
  ]
}
